PMC7791966 (Experimental and Therapeutic Medicine, 2020)
Residue numbers refer to the chain shown, from its start. One block for each binder: values may come before it.

Target: Recombinant human HER2 (Homo sapiens, UniProt P04626)
Assay: SPR

- Kd: 2.5 nM
B1: e23sFv, mouse anti-HER2 single-chain variable fragment (scFv, V domains shown)
VH: VQLQESGPEVVKPGGSMKISCKTSGYSFTGHTMNWVKQSHGKNLEWIGLINPYNGDTNYNQKFKGKATFTVDKSSSTAYMELLSLTSEDSAVYYCARRVTDWYFDVWGAGTTVTVS
VL: DLQLTQSPAILSASPGEKVTMTCRATPSVSYMHWYQQKPGSSPKPWIYTTSNLASGVPARFSGGGSGTSYSLTVSRVEAEDAATYYCQQWSRSPPTFGGGSKLEIK

- Kd: ~500 nM
B2: EMEY, e23sFv derivative with 11 point mutations in the framework regions (scFv, V domains shown)
VH: B1 VH with V10L, M17V, T23A, N43G, F69L, L83S
VL: B1 VL with S41T, P45L, G64S, V74I, S101T
